According to US20220378956A1:

Experiments:
soluble uPAR (suPAR) [1] = biological target: soluble uPAR (suPAR) (UniProt Q03405); test: SPR (Biacore 2000), antibody captured on rabbit anti-mouse surface, suPAR injected, 25 C, 1:1 Langmuir fit
soluble uPAR (suPAR) [2] = biological target: soluble uPAR (suPAR) (UniProt Q03405); test: SPR (Biacore 2000), antibody captured on protein A/G surface, suPAR injected, 25 C, 1:1 Langmuir fit

## mouse monoclonal antibody ATN-658
Soluble uPAR (suPAR) [1]
  Kd: 0.38 nM

## Human Engineered ATN-658 variant HE ATN-4, renamed humanized mAb MNPR-101 (antibody)
Soluble uPAR (suPAR) [2]
  Kd: 0.39 nM
